The target in experiment [1] is FLAG-tagged VEGF^121 (WT), a soluble splicing variant of VEGFA. Description: non-reducing SDS-PAGE and FLAG immunoblot; FLAG-VEGF^121 immunopurified with FLAG-M1 antibody from conditioned media of transfected WT HeLa (and WT MDAMB231^m) cells; reducing against non-reducing immunoblot; disulfide-bonded homodimer against monomer. (In western blotting, separated proteins are transferred to a membrane and probed.)

The target is the same in experiment [2]. Description: non-reducing SDS-PAGE and FLAG immunoblot; FLAG-VEGF^121 immunopurified with FLAG-M1 antibody from conditioned media of transfected ERO1 KO HeLa (and ERO1 KO MDAMB231^m) cells; reducing against non-reducing immunoblot; disulfide-bonded homodimer against monomer.

For orientation: stoichiometry N means the number of molecules, sites or subunits per partner or assembly.

With “FLAG-tagged VEGF^121 (WT), a soluble splicing variant of VEGFA (ligand)”, in experiment [1], the stoichiometry N came to 2. Moreover, the monomer as percent of the total secreted VEGF^121 in experiment [2] amounted to 80%.
